{"source": "patent EP4566632A1", "about": "(Nona Biosciences (Suzhou) Co., Ltd., dated 2024)", "binders": {"B1": {"name": "PR300186 (antibody, human IgG1, kappa, V domains shown)", "VH": "QVQLQESGPGLVKPSETLSLTCTVSGGSINNYYWSWVRQPPGKGLEWIGYIFYSGSTNSNPSLKSRVIISVDTSKNQFSLKLSSVTAADTAVYYCAREVGRIAVAGWFFDLWGRGTLVTVSS", "VL": "not shown", "notes": "Initial antibody from Harbour H2L2 transgenic mice; also called anti-MSLN antibody PR300186"}, "B2": {"name": "PR300186-4 (antibody, human IgG1, kappa, V domains shown)", "VH": "B1 VH with N30Q, N58Q", "VL": "not shown", "notes": "PTM variant of PR300186: Heavy chain N30Q and N58Q, Light chain N30Q"}, "B3": {"name": "PR300186-5 (antibody, human IgG1, kappa, V domains shown)", "VH": "B1 VH", "VL": "not shown", "notes": "PTM variant of PR300186: Light chain N30Q"}, "B4": {"name": "PR300186-6 (antibody, human IgG1, kappa, V domains shown)", "VH": "B1 VH with N30Q, S59A", "VL": "not shown", "notes": "PTM variant of PR300186: Heavy chain N30Q and S59A"}, "B5": {"name": "PR300186-7 (antibody, human IgG1, kappa, V domains shown)", "VH": "B1 VH with N30Q", "VL": "not shown", "notes": "PTM variant of PR300186: Heavy chain N30Q, Light chain S31A"}, "B6": {"name": "PR300186-8 (antibody, human IgG1, kappa, V domains shown)", "VH": "B1 VH with N30Q, S59A", "VL": "not shown", "notes": "PTM variant of PR300186: Heavy chain N30Q and S59A, Light chain S31A"}, "B7": {"name": "PR300186-2 (antibody, human IgG1, kappa, V domains shown)", "VH": "B1 VH with N30Q", "VL": "not shown", "notes": "PTM variant of PR300186: Heavy chain N30Q"}, "B8": {"name": "PR300186-3 (antibody, human IgG1, kappa, V domains shown)", "VH": "B1 VH with N30Q, N58Q", "VL": "not shown", "notes": "PTM variant of PR300186: Heavy chain N30Q and N58Q"}, "B9": {"name": "PR300186-9 (antibody, human IgG1, kappa, V domains shown)", "VH": "B1 VH", "VL": "not shown", "notes": "PTM variant of PR300186: Light chain S31A"}, "B10": {"name": "PR300186-10 (antibody, human IgG1, kappa, V domains shown)", "VH": "B1 VH with N30Q, N58Q", "VL": "not shown", "notes": "PTM variant of PR300186: Heavy chain N30Q and N58Q, Light chain S31A"}}, "note": "Residue numbers refer to the chain shown, from its start. Names and notes keep the numbering of the source.", "data": [{"biological_target": "T1, Human MSLN (Acro Biosystems, Cat #: MSN-H5223) (human, UniProt Q13421 296-580, limits assumed)", "T1 construct": "extracellular domain; Bought protein; also called human MSLN protein; recombinant human MSLN ECD His-tag protein; not shown: His tag", "T1 sequence (Q13421 other isoform, or with tags, fused parts or gaps limits assumed)": "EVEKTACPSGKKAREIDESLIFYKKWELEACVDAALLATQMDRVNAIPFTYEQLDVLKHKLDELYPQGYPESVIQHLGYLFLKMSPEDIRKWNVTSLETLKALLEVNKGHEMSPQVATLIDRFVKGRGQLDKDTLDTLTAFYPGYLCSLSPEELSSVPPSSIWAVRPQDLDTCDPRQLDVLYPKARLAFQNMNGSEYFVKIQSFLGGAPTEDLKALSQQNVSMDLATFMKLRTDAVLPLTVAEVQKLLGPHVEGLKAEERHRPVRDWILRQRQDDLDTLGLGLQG", "assay": "ELISA, human MSLN protein coated on plate", "units": {"EC50": "pM"}, "values": [{"binder": "B1", "EC50": 120, "Span": 3.42}, {"binder": "B2", "EC50": 180, "Span": 3.47}, {"binder": "B3", "EC50": 220, "Span": 3.61}, {"binder": "B4", "EC50": 210, "Span": 3.66}, {"binder": "B5", "EC50": 140, "Span": 3.85}, {"binder": "B6", "EC50": 130, "Span": 3.87}, {"binder": "B7", "EC50": 140, "Span": 3.36}, {"binder": "B8", "EC50": 100, "Span": 3.25}, {"binder": "B9", "EC50": 110, "Span": 3.85}, {"binder": "B10", "EC50": 100, "Span": 3.71}]}, {"biological_target": "T2, cynomolgus monkey MSLN protein (Harbour BioMed, Batch #: 2019072202) (cynomolgus monkey)", "T2 construct": "also called recombinant cynomolgus monkey MSLN ECD His-tag protein", "T2 chain": "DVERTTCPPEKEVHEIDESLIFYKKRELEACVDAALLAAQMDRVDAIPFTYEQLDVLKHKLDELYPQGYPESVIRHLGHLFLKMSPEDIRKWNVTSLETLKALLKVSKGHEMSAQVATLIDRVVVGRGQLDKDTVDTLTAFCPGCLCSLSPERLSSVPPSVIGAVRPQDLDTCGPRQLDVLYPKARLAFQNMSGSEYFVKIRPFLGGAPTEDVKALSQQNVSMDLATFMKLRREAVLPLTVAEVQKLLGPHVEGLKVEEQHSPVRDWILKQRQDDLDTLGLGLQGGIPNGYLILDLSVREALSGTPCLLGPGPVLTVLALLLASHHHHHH", "assay": "ELISA, cynomolgus monkey MSLN protein coated on plate", "units": {"EC50": "pM"}, "values": [{"binder": "B1", "EC50": 50, "Span": 2.33}, {"binder": "B2", "EC50": 70, "Span": 2.53}, {"binder": "B3", "EC50": 70, "Span": 2.7}, {"binder": "B4", "EC50": 70, "Span": 2.67}, {"binder": "B5", "EC50": 40, "Span": 2.24}, {"binder": "B6", "EC50": 40, "Span": 2.18}, {"binder": "B7", "EC50": 50, "Span": 2.43}, {"binder": "B8", "EC50": 50, "Span": 2.36}, {"binder": "B9", "EC50": 50, "Span": 2.19}, {"binder": "B10", "EC50": 40, "Span": 2.19}]}]}
